Measured values: article PMC3213697
Values belong to the substance of their own block, whether it stands above or below them.

Key:
Experiment in all cases: SEC; gel filtration chromatography of the refolded precursor proteins after heparin affinity chromatography; peak D, dimer
[1] = target: C374A myostatin precursor protein (UniProt O14793)
[2] = target: C313A myostatin precursor protein (UniProt O14793)
[3] = target: C313Y myostatin precursor protein (UniProt O14793)

- stoichiometry N [1]: 2
Substance: C374A myostatin precursor protein (from UniProt O14793 24-375) (natural protein)

- stoichiometry N [2]: 2
Substance: C313A myostatin precursor protein (from UniProt O14793 24-375) (natural protein)

- stoichiometry N [3]: 2
Substance: C313Y myostatin precursor protein (from UniProt O14793 24-375) (natural protein)
